We go through 2 molecules from paper PMC10318897, “The structure of Leptospira interrogans GAPDH sheds light into an immunoevasion factor that can target the anaphylatoxin C5a of innate immunity” (Frontiers in Immunology, 2023).

For orientation: kon means a measure of how fast the partners come together. A high value points to faster complex formation. The stoichiometry N is a count of units in the complex or per binding partner.

B2: Leptospira interrogans glyceraldehyde-3-phosphate dehydrogenase (GAPDH) (enzyme)
chain: MTRIAINGFGRIGRLVFRAGIKDPNLEFVAINDLVTPDNLAYLLKYDSTHGRFQGTVEHTEKELIVDGKKILCVSERDPEKLPWKDLKVDYVIESTGLFTDRVGAEKHIKAGAKKVVISAPAKDKDIPTFVMGVNNEKYNPSNDHIVSNASCTTNCLAPIVKVVLDNWGIEEGLMTTIHATTATQPTVDGPSKKDFRGGRGAMQNIIPASTGAAKAVGLCIPEVNGKLTGMSFRVPTPDVSVVDLTVRTTKETSLKEISAKMKAASEGAMKGILGYTEDMVVSNDFVSSTLSSIFDMDACIELNSRFFKLVSWYDNEMGYSNRVLDLIRYMAKKG
notes: also called LiGAPDH; L. interrogans GAPDH; source: E. coli Rosetta(DE3), purified (HisTrap, Superdex 200 SEC); not shown: His6, N-terminal, kept

The target in series [1] is B2. Description: BLI. The conditions noted are these: both partners purified.
Series [2] concerns the molecule itself. Description: SEC; HiLoad 16/60 Superdex 200 pg in 10 mM HEPES-NaOH (pH 7.4), 150 mM NaCl, 3.4 mM EDTA; elution volume compared with a calibration curve.

B1: biotinylated-C5a (ligand)
chain: TLQKKIEEIAAKYKHSVVKKCCYDGACVNNDETCEQRAARISLGPRCIKAFTECCVVASQLRANISHKDMQLGR
modifications: biotinylated (site not stated)
notes: also called immobilized C5a; source: bought: Abvance Biotech (ABVC5ARBIO1)
As to B1, the kon in series [1] was determined as 37.3 ± 0.2 M⁻¹ s⁻¹.

For B2, the “stoichiometry N” value in series [2] was 4.
